According to US5756291, “Aptamers specific for biomolecules and methods of making” (Gilead Sciences, Inc.):

B1: pentynyl-dU clone 24 60-mer (ssDNA)
DNA: TAGAATACTCAAGCTTCGACGGTATATAGTATAGTATTGGCAGTTTGGATCCCCGGGTAC
modifications: X 5-pentynyl-dU; T in 3' constant region also 5-pentynyl-dU; T in 5' constant region unmodified [23,25,27,30,32,35,37,38 (X = 5-pentynyl-dU); 44,45,46,50,58 (3' constant region T = 5-pentynyl-dU)]

Key:
[1] = biological target: T1, thrombin (alpha, Factor IIa) (Homo sapiens, UniProt P00734;P00734 P00734:328-363,P00734:364-622); assay: filter
[2] = biological target: T1, thrombin (alpha, Factor IIa); assay: inhibition
[3] = biological target: T1, thrombin (alpha, Factor IIa); assay: inhibition; 100 nM; no DNA 23 s
trypsin = trypsin (UniProt P00760 P00760:24-246); assay: EMSA; 500 nM protein, 4 C
serum albumin = serum albumin (Homo sapiens, UniProt P02768 P02768:25-609); assay: EMSA; 500 nM protein, 4 C
Factor X = Factor X (UniProt P00742;P00742 P00742:41-179,P00742:183-488); assay: EMSA; 500 nM protein, 4 C; settings: tags: Haematologic Technologies HCXA-0060
chymotrypsin = chymotrypsin (UniProt P00766;P00766;P00766 P00766:1-13,P00766:16-146,P00766:149-245); assay: EMSA; 500 nM protein, 4 C
prothrombin = prothrombin (Homo sapiens, UniProt P00734 P00734:44-622); assay: EMSA; 500 nM protein, 4 C

trypsin, sequence (P00760 24-246, one chain of several): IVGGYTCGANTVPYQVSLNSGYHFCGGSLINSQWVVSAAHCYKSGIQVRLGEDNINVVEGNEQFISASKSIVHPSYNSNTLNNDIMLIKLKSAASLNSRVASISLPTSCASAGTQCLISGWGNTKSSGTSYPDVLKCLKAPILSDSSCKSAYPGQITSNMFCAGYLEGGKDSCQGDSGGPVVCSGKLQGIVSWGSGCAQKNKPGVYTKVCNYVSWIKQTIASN
Factor X, sequence (P00742 41-179, chain 1 of 2): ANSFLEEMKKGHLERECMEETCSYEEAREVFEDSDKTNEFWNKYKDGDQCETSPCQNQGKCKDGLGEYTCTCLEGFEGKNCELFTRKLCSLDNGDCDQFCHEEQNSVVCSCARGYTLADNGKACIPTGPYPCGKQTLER
Factor X, sequence (P00742 183-488, chain 2 of 2): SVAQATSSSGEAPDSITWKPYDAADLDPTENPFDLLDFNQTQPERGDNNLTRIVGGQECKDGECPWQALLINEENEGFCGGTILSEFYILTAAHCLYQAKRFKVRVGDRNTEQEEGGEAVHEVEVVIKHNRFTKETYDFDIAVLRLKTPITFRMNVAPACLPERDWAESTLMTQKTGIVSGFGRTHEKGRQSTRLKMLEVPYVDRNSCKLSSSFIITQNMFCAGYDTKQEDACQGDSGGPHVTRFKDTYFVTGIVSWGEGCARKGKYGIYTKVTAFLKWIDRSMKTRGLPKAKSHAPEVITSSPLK
serum albumin, sequence (P02768 25-609, one chain of several): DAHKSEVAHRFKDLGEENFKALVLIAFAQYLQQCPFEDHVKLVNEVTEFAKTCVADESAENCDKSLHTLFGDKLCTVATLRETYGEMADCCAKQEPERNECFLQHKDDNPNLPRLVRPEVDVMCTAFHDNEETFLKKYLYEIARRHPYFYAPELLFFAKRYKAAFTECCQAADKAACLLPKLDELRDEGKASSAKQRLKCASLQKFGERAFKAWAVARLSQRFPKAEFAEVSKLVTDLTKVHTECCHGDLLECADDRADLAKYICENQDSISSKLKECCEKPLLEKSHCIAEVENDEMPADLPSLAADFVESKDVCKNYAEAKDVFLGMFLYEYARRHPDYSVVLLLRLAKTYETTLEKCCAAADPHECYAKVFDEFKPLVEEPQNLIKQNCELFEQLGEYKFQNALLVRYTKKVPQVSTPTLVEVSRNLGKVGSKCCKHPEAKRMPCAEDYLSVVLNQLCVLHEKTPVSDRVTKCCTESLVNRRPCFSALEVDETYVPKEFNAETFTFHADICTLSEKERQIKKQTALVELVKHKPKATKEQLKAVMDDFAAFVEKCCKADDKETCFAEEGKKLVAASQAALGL

| Binder | Ki [2] [nM] | activity [3] [s clot time] | other results |
| --- | --- | --- | --- |
| GGTTGGGCTGGTTGGGTTGGG (ssDNA) [21-mer thrombin aptamer] | ~100 | – | Kd [1]: ~350 nM |
| GGTTGGUGUGGTTGG (ssDNA, dU at 7 and 9) [15-mer dU7 dU9] | 15 | – | – |
| GGTTGGTGTGGTTGG (ssDNA, Z 5-(1-propynyl)-2'-deoxyuridine [3 (Z = 5-(1-propynyl)-2'-deoxyuridine)]) [15-mer propynyl-dU 3] | – | 138 | – |
| GGTTGGTGTGGTTGG (ssDNA, Z 5-(1-propynyl)-2'-deoxyuridine [4 (Z = 5-(1-propynyl)-2'-deoxyuridine)]) [15-mer propynyl-dU 4] | – | 187 | – |
| GGTTGGTGTGGTTGG (ssDNA, Z 5-(1-propynyl)-2'-deoxyuridine [12 (Z = 5-(1-propynyl)-2'-deoxyuridine)]) [15-mer propynyl-dU 12] | – | 129 | – |
| GGTTGGTGTGGTUGG (ssDNA, U13 is 5-(1-pentynyl)-2'-deoxyuridine) [15-mer pentynyl-U13] | 20 | – | – |
| GGTTGGTGTGGTTGG (ssDNA, Z 5-(1-propynyl)-2'-deoxyuridine [9 (Z = 5-(1-propynyl)-2'-deoxyuridine)]) [15-mer propynyl-dU 9] | – | 120 | – |
| GGTTGGTGTGGTTGG (ssDNA, Z 5-(1-propynyl)-2'-deoxyuridine [7 (Z = 5-(1-propynyl)-2'-deoxyuridine)]) [15-mer propynyl-dU 7] | – | 118 | – |
| GGUTGGTGTGGUTGG (ssDNA, dU at 3 and 12) [15-mer dU3 dU12] | 80 | – | – |
| B1 | – | – | Kd [1]: 400 nM; binding result (trypsin): no binding; binding result (serum albumin): no binding; binding result (Factor X): no binding; binding result (chymotrypsin): no binding; binding result (prothrombin): no binding |
